Each block holds one binder with its values, some of them ahead of it.
Legend:
HLA-A2 [1] = biological target: T1, HLA-A2 (human); assay: flow cytometry of HLA-A2 on T2A2 cells, peptide 0 to 50 µg/ml
T1 construct: whole, on cells; also called HLA-A2.1; MHC-class I A2
Experimental: (§1) Peptide Binding to HLA-A2. […] Briefly, 1×10⁶ cells in serum-free Iscove's modified Dulbecco's complete medium were incubated with peptides at a concentration of 50 μg/ml in 24 well culture plates at 37° C. in 5% CO₂. Flow cytometry for peptide binding was performed using T2 cells and single-color analysis. After cells were washed three times in DPBS, as described above, they were incubated for 1 h with HLA-A2 specific MAb (One Lambda, Inc.) using […] of a 1× working dilution per 10⁶ cells. UPC-10 (Cappel/Organon Teknika) was used as isotype control. The cells were washed three times and incubated with 1:100 dilution of FITC-labeled anti-mouse IgG (Becton Dickinson). Analysis was conducted with the FACScan, as described above. Cells were maintained on ice during all cell preparation and staining.

HLA-A2 [2] = biological target: T1, HLA-A2; assay: flow cytometry of HLA-A2 on T2A2 cells
Experimental: as §1

HLA-A2 [3] = biological target: T1, HLA-A2; assay: flow cytometry of HLA-A2 on peptide-loaded T2A2 cells
Experimental: as §1

B1: PSA-3 (L-155) also called PSA-3A (peptide)
peptide: VLSNDVCAQV
notes: Synthetic analog peptide; also called agonist peptide PSA-3A
binding result (HLA-A2 [1]): binds

Binder: VISNDVCAQL (Synthetic analog peptide) [PSA-3 (L-163)]
binding result (HLA-A2 [3]): no binding (tested: 0 to 50 µg/ml)

The next lines start with the values.

binding result (HLA-A2 [2]): binds
B2: PSA-3 (Y-154/L-155) (peptide)
peptide: YLSNDVCAQV
notes: Synthetic analog peptide; also called PSA-3 (L155/Y154)

binding result (HLA-A2 [2]): binds
Binder: YISNDVCAQV (Synthetic analog peptide) [PSA-3 (Y-154)]

Reference: patent US20050054575A1 (US Dept. of Health and Human Services, published 2005)
